This note sets out measurements from PMC3741624.

This assay concerns the target human plasma fibronectin, manually deposited single Fn fibers (human).

As for “integrin α5β1 (from UniProt P08648 42-1049; P05556 21-798) (receptor)”, the ratio of ALP positive hMSCs on stretched Fn fibers after 7 days with the function-blocking antibody against α5β1 (clone JBS5), against no antibody is 31%.

Take “integrin αvβ3 (from UniProt P06756 31-1048; P05106 27-788) (receptor)”: the ratio of ALP positive hMSCs on relaxed Fn fibers after 7 days with the function-blocking antibody against αvβ3 (clone 23C6), against no antibody worked out at 30%.
